Where no end group is shown, it is not given here.

Experiment [1] has as its target T1, µ opioid receptor (bovine caudate nucleus synaptic membrane fraction) (bovine, UniProt P79350 1-401).
T1 construct: whole, on cells; Native receptor in brain membranes, not on intact cells; The tissue may hold other opioid receptors; also called µ-receptor; µ opioid receptors
Briefly: displacement of 1 nM [3H]DAMGO, bovine caudate synaptic membranes; column Time 0 hours. Here is the method:
(§1) Affinities for […] opioid receptor were determined using [³H](D-Ala²,N-Me-Phe⁴, Gly-ol⁵) Enkephalin (DAMGO) (1 nM) as described by Christensen, 1993, Pharmacol. Toxicol. 73:344-345. In short: Bovine brains were placed on ice within minutes after the slaughter. The caudate nuclei were dissected and homogenized in 20 vol. of 0.32 M sucrose. The homogenate was centrifuged at 2000 g for 10 min. The pellet was re-suspended in 10 vol. of 50 mM Tris-HCl buffer 7.4 and stored at −20° C. until use. The synaptic membrane fraction was incubated with 1 nM of [3H]DAMGO in the presence of various concentrations of test ligand. Non-specifically bound [3H]-DAMGO was established using 1 μM naloxone. Following 15 min. incubation at 36° C. samples were filtered through Whatman GF/C filters and washed with buffer. Radioactivity was determined using conventional techniques.

Experiment [2] has as its target T1, µ opioid receptor (bovine caudate …). As to the kind of experiment: displacement of 1 nM [3H]DAMGO, bovine caudate synaptic membranes; column Time 18 hours.
Experiment [3] deals with PTH (1-34)-antibody of the enzyme immunoassay EIAS(h)-6101 (Peninsula Laboratories, Inc.). Briefly: competitive EIA against biotinylated peptide for the PTH(1-34) antibody.
The target in experiment [4] is T1, µ opioid receptor (bovine caudate …). As to the kind of experiment: displacement of 1 nM [3H]DAMGO, bovine caudate synaptic membranes; column Time 0 hours; mean ± SD. How it is done:
as §1

T1 sequence (P79350 whole entry): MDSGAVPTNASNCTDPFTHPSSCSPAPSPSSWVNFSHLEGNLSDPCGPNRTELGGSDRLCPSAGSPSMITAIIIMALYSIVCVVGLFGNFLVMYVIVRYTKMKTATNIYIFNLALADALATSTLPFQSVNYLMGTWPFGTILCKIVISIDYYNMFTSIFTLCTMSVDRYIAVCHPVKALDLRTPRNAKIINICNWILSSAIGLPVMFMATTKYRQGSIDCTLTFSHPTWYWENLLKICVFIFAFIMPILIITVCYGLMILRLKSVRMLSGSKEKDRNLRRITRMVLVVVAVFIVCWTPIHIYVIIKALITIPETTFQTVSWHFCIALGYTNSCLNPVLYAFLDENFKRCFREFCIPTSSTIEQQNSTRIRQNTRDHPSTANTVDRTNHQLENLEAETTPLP

On to H-YGGFLEEEEEE-OH [Leu-Enkephalin-(Glu)6-OH (H-Tyr-Gly-Gly-Phe-Leu-Glu6-OH)], for which the IC50 was 10000 nM in experiment [1] and 5000 nM in experiment [2]. H-KKKKKKSVSEIQLMHNLGKHLNSMERVEWLRKKLQDVHNF-OH [H-K6-PTH(1-34)-OH (Lys6-PTH(1-34)(Human)-OH)] returned a Relative recovery % in experiment [3] of 79.1%. The same measure, in the same setting: for H-SVSEIQLMHNLGKHLNSMERVEWLRKKLQDVHNFKKKKKK-OH [H-hPTH(1-34)-K6-OH (PTH(1-34)(Human)-Lys6-OH)] the value was 61.8%. Turning to YGGFLKEKEKE-OH [Leu-Enkephalin-(Lys-Glu)3-OH], the IC50 in experiment [2] stood at 900 nM; in experiment [4], 450 nM.

In the case of H-YGGFLKKKKKK-OH (also called H-Leu-enkephalin-Lys6) [Leu-Enkephalin-(Lys)6-OH (H-Tyr-Gly-Gly-Phe-Leu-Lys6-OH)], the IC50 in experiment [2] worked out at 32 nM; in experiment [4] it was 17 nM. SVSEIQLMHNLGKHLNSMERVEWLRKKLQDVHNF-OH [hPTH (1-34) (PTH(1-34)(Human)-OH)]: the Relative recovery % in experiment [3] was 90.8%.

(Values after US20080227954A1 (ZEALAND PHARMA A S, published 2008).)
